This note sets out measurements from patent publication US20250066503A1, “CELL INJURY INDUCING THERAPEUTIC DRUG FOR USE IN CANCER THERAPY” (CHUGAI SEIYAKU KABUSHIKI KAISHA, priority 2016, published 2025).

The target in this assay is T1, human GPC3 (human, UniProt P51654 25-563).
T1 construct: range 25-563; soluble analyte; also called soluble human GPC3; glypican 3
As to the kind of experiment: SPR.

Numbering of substitutions follows the chain as printed.

T1 sequence (P51654 25-563 limits assumed): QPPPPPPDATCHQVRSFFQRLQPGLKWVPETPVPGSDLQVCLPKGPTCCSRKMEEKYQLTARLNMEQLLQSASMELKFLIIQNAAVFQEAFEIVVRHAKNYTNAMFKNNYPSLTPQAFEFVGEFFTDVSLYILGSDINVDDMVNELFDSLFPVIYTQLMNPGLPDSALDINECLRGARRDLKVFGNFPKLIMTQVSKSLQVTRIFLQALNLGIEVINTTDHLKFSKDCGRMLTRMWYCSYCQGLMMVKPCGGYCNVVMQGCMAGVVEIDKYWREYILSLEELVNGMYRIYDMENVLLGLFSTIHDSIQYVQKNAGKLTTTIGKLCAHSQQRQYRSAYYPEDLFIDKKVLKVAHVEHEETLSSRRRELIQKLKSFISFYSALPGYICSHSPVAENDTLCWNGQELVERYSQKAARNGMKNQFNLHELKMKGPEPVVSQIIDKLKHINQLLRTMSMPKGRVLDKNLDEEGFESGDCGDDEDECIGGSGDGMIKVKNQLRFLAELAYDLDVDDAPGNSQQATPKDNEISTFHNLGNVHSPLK

B1: GCH054-G1dh/none-Hi-Kn010G3/L0215-k0 (antibody, V domains shown)
VH: QVQLVQSGAEVKKPGASVTVSCKASGYTFTDYEMHWIRQPPGEGLEWIGAIDGETPDTAYSEKFKGRVTLTADKSTSTAYMELSSLTSEDTAVYYCTRFYSYTYWGQGTLVTVSS
VL: DIVMTQSPLSLPVTPGEPASISCRSSQPPVHSNRNTYIHWYQQKPGQAPRLLIYKVSNRFSGVPDRFSGSGSGTDFTLKISRVEAEDVGVYYCGQGTQVPYTFGQGTKLEIK
notes: one-arm
The term Kd denotes the equilibrium constant for the complex coming apart. Low readings indicate a tighter complex, high ones a looser complex. Regarding B1, binding was characterised by a dissociation constant (Kd) of 1.62 nM.

B2: GCH065-G1dh/none-Hi-Kn010G3/L0272-k0 (antibody, V domains shown)
VH: B1 VH with E54P
VL: B1 VL with P29L, N35Q, I38L
notes: one-arm
B2 displayed a dissociation constant (Kd) of 0.393 nM.

B3: H0610-G1dh/none-Hi-Kn010G3/L0006-k0 (antibody, V domains shown)
VH: B1 VH with T19K, E43Q, E54K, E62Q
VL: B1 VL with S25P, P28S, P29L, I38L
notes: one-arm
On to B3, for which the Kd worked out at 3.04 nM.

B4: H0610-G1dh/none-Hi-Kn010G3/L0042-k0 (antibody, V domains shown)
VH: B1 VH with T19K, E43Q, E54K, E62Q
VL: B1 VL with P28S, P29L, S32M, I38L
notes: one-arm
B4: the affinity, expressed as Kd, was 4.27 nM.

B5: H0610-G1dh/none-Hi-Kn010G3/L0069-k0 (antibody, V domains shown)
VH: B1 VH with T19K, E43Q, E54K, E62Q
VL: B1 VL with P28S, P29L, N35M, I38L
notes: one-arm
For B5, the dissociation constant Kd stood at 5.32 nM.

B6: H0610-G1dh/none-Hi-Kn010G3/L0013-k0 (antibody, V domains shown)
VH: B1 VH with T19K, E43Q, E54K, E62Q
VL: B1 VL with P28S, P29I, I38L
notes: one-arm
Consider B6, for which the affinity, expressed as Kd, was 3.35 nM.

B7: H0610-G1dh/none-Hi-Kn010G3/L0047-k0 (antibody, V domains shown)
VH: B1 VH with T19K, E43Q, E54K, E62Q
VL: B1 VL with P28S, P29L, S32W, I38L
notes: one-arm
In turn, B7 gave a Kd of 2.23 nM.

B8: GCH054-G1dh/none-Hi-Kn010G3/L0249-k0 (antibody, V domains shown)
VH: B1 VH
VL: B1 VL with S25P, P28S, H39Q, G94S
notes: one-arm
Regarding B8, the Kd is 0.00361 nM.

B9: GCH057-G1dh/none-Hi-Kn010G3/L0215-k0 (antibody, V domains shown)
VH: B1 VH with K65E
VL: B1 VL
notes: one-arm
As to B9, the Kd was 1.83 nM.

B10: H0610-G1dh/none-Hi-Kn010G3/L0039-k0 (antibody, V domains shown)
VH: B1 VH with T19K, E43Q, E54K, E62Q
VL: B1 VL with P28S, P29L, S32H, I38L
notes: one-arm
Regarding B10, the Kd was 3.41 nM.

B11: H0610-G1dh/none-Hi-Kn010G3/L0007-k0 (antibody, V domains shown)
VH: B1 VH with T19K, E43Q, E54K, E62Q
VL: B1 VL with S25T, P28S, P29L, I38L
notes: one-arm
Molecule B11 showed a Kd of 4.39 nM.

B12: GCH054-G1dh/none-Hi-Kn010G3/L0246-k0 (antibody, V domains shown)
VH: B1 VH
VL: B1 VL with P28S, H39Q, G94S
notes: one-arm
In the case of B12, binding was characterised by a dissociation constant (Kd) of 0.0315 nM.

B13: GCH054-G1dh/none-Hi-Kn010G3/TR01L019-k0 (antibody, V domains shown)
VH: B1 VH
VL: B1 VL with R24Q, S25A, Q27E, P28S, I38L, Q42L, A48S, R50Q, G94Y
notes: one-arm
B13 returned a Kd of 0.871 nM.

B14: H0610-G1dh/none-Hi-Kn010G3/L0009-k0 (antibody, V domains shown)
VH: B1 VH with T19K, E43Q, E54K, E62Q
VL: B1 VL with S26P, P28S, P29L, I38L
notes: one-arm
B14 registered a Kd of 2.99 nM.

B15: GCH094-G1dh/none-Hi-Kn010G3/L0270-k0 (antibody, V domains shown)
VH: B1 VH with I37V, P40A, I48M
VL: B1 VL with P28S, P29L, N35Q, I38L
notes: one-arm
In turn, B15 came in with a Kd of 3.6 nM.

B16: H0610-G1dh/none-Hi-Kn010G3/L0012-k0 (antibody, V domains shown)
VH: B1 VH with T19K, E43Q, E54K, E62Q
VL: B1 VL with P28S, P29F, I38L
notes: one-arm
B16 had a Kd of 1.55 nM.

B17: GCH054-G1dh/none-Hi-Kn010G3/TR01L016-k0 (antibody, V domains shown)
VH: B1 VH
VL: B1 VL with P28S, I38L, Q42L, A48S, R50Q, G94Y
notes: one-arm
B17 showed a Kd of 0.763 nM.

B18: GCH094-G1dh/none-Hi-Kn010G3/L0272-k0 (antibody, V domains shown)
VH: B1 VH with I37V, P40A, I48M
VL: B1 VL with P29L, N35Q, I38L
notes: one-arm
Consider B18, for which binding was characterised by a dissociation constant (Kd) of 2.1 nM.

B19: H0610-G1dh/none-Hi-Kn010G3/L0002-k0 (antibody, V domains shown)
VH: B1 VH with T19K, E43Q, E54K, E62Q
VL: B1 VL with S25A, P28S, P29L, I38L
notes: one-arm
Molecule B19 came in with a Kd of 4.43 nM.

B20: GCH054-G1dh/none-Hi-Kn010G3/TR01L018-k0 (antibody, V domains shown)
VH: B1 VH
VL: B1 VL with R24Q, S25A, Q27E, P28S, I38L, Q42L, A48S, R50Q
notes: one-arm
As for B20, the Kd was found to be 2.59 nM.

B21: H0610-G1dh/none-Hi-Kn010G3/L0041-k0 (antibody, V domains shown)
VH: B1 VH with T19K, E43Q, E54K, E62Q
VL: B1 VL with P28S, P29L, S32L, I38L
notes: one-arm
B21 yielded a Kd of 4.85 nM.

B22: GCH055-G1dh/none-Hi-Kn010G3/L0215-k0 (antibody, V domains shown)
VH: B1 VH with E62D
VL: B1 VL
notes: one-arm
In turn, B22 came in with a Kd of 1.52 nM.

B23: GCH056-G1dh/none-Hi-Kn010G3/L0262-k0 (antibody, V domains shown)
VH: B1 VH with E62Q, K65E
VL: B1 VL with I38L, G94A
notes: one-arm
Molecule B23 yielded a Kd of 0.0119 nM.

B24: H0610-G1dh/none-Hi-Kn010G3/L0046-k0 (antibody, V domains shown)
VH: B1 VH with T19K, E43Q, E54K, E62Q
VL: B1 VL with P28S, P29L, S32V, I38L
notes: one-arm
Molecule B24 gave a Kd of 5.45 nM.

B25: GCH054-G1dh/none-Hi-Kn010G3/TR01L015-k0 (antibody, V domains shown)
VH: B1 VH
VL: B1 VL with P28S, I38L, Q42L, A48S, R50Q
notes: one-arm
Regarding B25, binding was put at a Kd of 2.45 nM.

B26: H0610-G1dh/none-Hi-Kn010G3/L0032-k0 (antibody, V domains shown)
VH: B1 VH with T19K, E43Q, E54K, E62Q
VL: B1 VL with P28S, P29L, H31R, I38L
notes: one-arm
The molecule B26 had a Kd of 3.72 nM.

B27: GCH094-G1dh/none-Hi-Kn010G3/L0246-k0 (antibody, V domains shown)
VH: B1 VH with I37V, P40A, I48M
VL: B1 VL with P28S, H39Q, G94S
notes: one-arm
Take B27: binding was put at a Kd of 0.00412 nM.

B28: GCH054-G1dh/none-Hi-Kn010G3/L0262-k0 (antibody, V domains shown)
VH: B1 VH
VL: B1 VL with I38L, G94A
notes: one-arm
Turning to B28, the affinity, expressed as Kd, was 0.000525 nM.

B29: H0610-G1dh/none-Hi-Kn010G3/L0044-k0 (antibody, V domains shown)
VH: B1 VH with T19K, E43Q, E54K, E62Q
VL: B1 VL with P28S, P29L, S32P, I38L
notes: one-arm
With B29, the Kd amounted to 4.57 nM.

B30: H0610-G1dh/none-Hi-Kn010G3/L0064-k0 (antibody, V domains shown)
VH: B1 VH with T19K, E43Q, E54K, E62Q
VL: B1 VL with P28S, P29L, N35F, I38L
notes: one-arm
B30 yielded an equilibrium dissociation constant (Kd) of 3.37 nM.

B31: H0610-G1dh/none-Hi-Kn010G3/L0063-k0 (antibody, V domains shown)
VH: B1 VH with T19K, E43Q, E54K, E62Q
VL: B1 VL with P28S, P29L, N35E, I38L
notes: one-arm
Turning to B31, the Kd worked out at 6.03 nM.

B32: H0610-G1dh/none-Hi-Kn010G3/L0008-k0 (antibody, V domains shown)
VH: B1 VH with T19K, E43Q, E54K, E62Q
VL: B1 VL with S25V, P28S, P29L, I38L
notes: one-arm
The molecule B32 returned a Kd of 3.3 nM.

B33: GCH060-G1dh/none-Hi-Kn010G3/L0200-k0 (antibody, V domains shown)
VH: B1 VH with T30E, E62Q, K65E, S88E
VL: B1 VL with S25P, P28S, I38L
notes: one-arm
On to B33, for which the Kd amounted to 1.34 nM.

B34: H0610-G1dh/none-Hi-Kn010G3/L0014-k0 (antibody, V domains shown)
VH: B1 VH with T19K, E43Q, E54K, E62Q
VL: B1 VL with P28S, P29M, I38L
notes: one-arm
The molecule B34 gave a Kd of 1.82 nM.

B35: GCH065-G1dh/none-Hi-Kn010G3/L0262-k0 (antibody, V domains shown)
VH: B1 VH with E54P
VL: B1 VL with I38L, G94A
notes: one-arm
The molecule B35 came in with a Kd of 0.0118 nM.

B36: H0610-G1dh/none-Hi-Kn010G3/L0003-k0 (antibody, V domains shown)
VH: B1 VH with T19K, E43Q, E54K, E62Q
VL: B1 VL with S25I, P28S, P29L, I38L
notes: one-arm
As for B36, the Kd turned out to be 4.01 nM.

B37: H0610-G1dh/none-Hi-Kn010G3/L0016-k0 (antibody, V domains shown)
VH: B1 VH with T19K, E43Q, E54K, E62Q
VL: B1 VL with P28S, P29V, I38L
notes: one-arm
Regarding B37, the Kd was determined as 4.44 nM.

B38: GCH055-G1dh/none-Hi-Kn010G3/L0200-k0 (antibody, V domains shown)
VH: B1 VH with E62D
VL: B1 VL with S25P, P28S, I38L
notes: one-arm
Take B38: binding was put at a Kd of 1.13 nM.

B39: H0610-G1dh/none-Hi-Kn010G3/L0045-k0 (antibody, V domains shown)
VH: B1 VH with T19K, E43Q, E54K, E62Q
VL: B1 VL with P28S, P29L, S32Q, I38L
notes: one-arm
As to B39, the affinity, expressed as Kd, was 4.66 nM.

B40: GCH056-G1dh/none-Hi-Kn010G3/L0215-k0 (antibody, V domains shown)
VH: B1 VH with E62Q, K65E
VL: B1 VL
notes: one-arm
Turning to B40, the Kd stood at 1.59 nM.

B41: H0610-G1dh/none-Hi-Kn010G3/L0062-k0 (antibody, V domains shown)
VH: B1 VH with T19K, E43Q, E54K, E62Q
VL: B1 VL with P28S, P29L, N35D, I38L
notes: one-arm
With B41, binding was put at a Kd of 5.28 nM.

B42: H0610-G1dh/none-Hi-Kn010G3/L0043-k0 (antibody, V domains shown)
VH: B1 VH with T19K, E43Q, E54K, E62Q
VL: B1 VL with P28S, P29L, S32N, I38L
notes: one-arm
Molecule B42 showed a Kd of 5.14 nM.

B43: GCH094-G1dh/none-Hi-Kn010G3/L0271-k0 (antibody, V domains shown)
VH: B1 VH with I37V, P40A, I48M
VL: B1 VL with N35Q, I38L
notes: one-arm
In turn, B43 came in with a Kd of 0.692 nM.

B44: H0610-G1dh/none-Hi-Kn010G3/L0065-k0 (antibody, V domains shown)
VH: B1 VH with T19K, E43Q, E54K, E62Q
VL: B1 VL with P28S, P29L, N35G, I38L
notes: one-arm
In the case of B44, binding was characterised by a dissociation constant (Kd) of 4.79 nM.

B45: H0610-G1dh/none-Hi-Kn010G3/L0066-k0 (antibody, V domains shown)
VH: B1 VH with T19K, E43Q, E54K, E62Q
VL: B1 VL with P28S, P29L, N35H, I38L
notes: one-arm
In turn, B45 yielded a Kd of 4.2 nM.

B46: H0610-G1dh/none-Hi-Kn010G3/L0038-k0 (antibody, V domains shown)
VH: B1 VH with T19K, E43Q, E54K, E62Q
VL: B1 VL with P28S, P29L, S32F, I38L
notes: one-arm
Turning to B46, the Kd is 2.75 nM.
